Measured values as given in PMC2768864 (The Journal of Experimental Medicine, 2009).

B1: activated factor XII (FXIIa) (enzyme, human)
heavy: IPPWEAPKEHKYKAEEHTVVLTVTGEPCHFPFQYHRQLYHKCTHKGRPGPQPWCATTPNFDQDQRWGYCLEPKKVKDHCSKHSPCQKGGTCVNMPSGPHCLCPQHLTGNHCQKEKCFEPQLLRFFHKNEIWYRTEQAAVARCQCKGPDAHCQRLASQACRTNPCLHGGRCLEVEGHRLCHCPVGYTGAFCDVDTKASCYDGRGLSYRGLARTTLSGAPCQPWASEATYRNVTAEQARNWGLGGHAFCRNPDNDIRPWCFVLNRDRLSWEYCDLAQCQTPTQAAPPTPVSPRLHVPLMPAQPAPPKPQPTTRTPPQSQTPGALPAKREQPPSLTRNGPLSCGQRLRKSLSSMTR
light: VVGGLVALRGAHPYIAALYWGHSFCAGSLIAPCWVLTAAHCLQDRPAPEDLTVVLGQERRNHSCEPCQTLAVRSYRLHEAFSPVSYQHDLALLRLQEDADGSCALLSPYVQPVCLPSGAARPSETTLCQVAGWGHQFEGAEEYASFLQEAQVPFLSLERCSAPDVHGSSILPGMLCAGFLEGGTDACQGDSGGPLVCEDQAAERRLTLQGIISWGSGCGDRNKPGVYTDVAYYLAWIREHTVS
B2: plasma kallikrein (enzyme)
heavy: GCLTQLYENAFFRGGDVASMYTPNAQYCQMRCTFHPRCLLFSFLPASSINDMEKRFGCFLKDSVTGTLPKVHRTGAVSGHSLKQCGHQISACHRDIYKGVDMRGVNFNVSKVSSVEECQKRCTSNIRCQFFSYATQTFHKAEYRNNCLLKYSPGGTPTAIKVLSNVESGFSLKPCALSEIGCHMNIFQHLAFSDVDVARVLTPDAFVCRTICTYHPNCLFFTFYTNVWKIESQRNVCLLKTSESGTPSSSTPQENTISGYSLLTCKRTLPEPCHSKIYPGVDFGGEELNVTFVKGVNVCQETCTKMIRCQFFTYSLLPEDCKEEKCKCFLRLSMDGSPTRIAYGTQGSSGYSLRLCNTGDNSVCTTKTSTR
light: not shown
B3: Ixodes ricinus contact phase inhibitor (Ir-CPI) (natural protein)
chain: ANHKGRGRPAKCKLPPDDGPCRARIPSYYFDRKTKTCKEFMYGGCEGNENNFENITTCQEECRAKKV

Columns and labels:
Test in all cases: SPR
[1] = target: B3
[2] = target: activated factor XI (FXIa) (human, UniProt P03951 19-387; P03951 388-625)
[3] = target: B1
[4] = target: B2

activated factor XI (FXIa), sequence (P03951 19-387, chain 1 of 2): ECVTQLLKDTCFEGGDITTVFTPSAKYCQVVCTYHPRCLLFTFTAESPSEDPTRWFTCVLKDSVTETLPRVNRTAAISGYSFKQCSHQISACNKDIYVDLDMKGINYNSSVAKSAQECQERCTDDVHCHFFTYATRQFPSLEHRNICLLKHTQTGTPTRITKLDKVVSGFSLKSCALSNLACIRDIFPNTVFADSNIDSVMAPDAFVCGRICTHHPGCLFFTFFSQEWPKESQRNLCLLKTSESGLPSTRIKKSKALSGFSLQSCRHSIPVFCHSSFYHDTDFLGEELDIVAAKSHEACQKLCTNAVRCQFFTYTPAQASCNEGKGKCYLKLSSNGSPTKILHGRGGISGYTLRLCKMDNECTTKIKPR
activated factor XI (FXIa), sequence (P03951 388-625, chain 2 of 2): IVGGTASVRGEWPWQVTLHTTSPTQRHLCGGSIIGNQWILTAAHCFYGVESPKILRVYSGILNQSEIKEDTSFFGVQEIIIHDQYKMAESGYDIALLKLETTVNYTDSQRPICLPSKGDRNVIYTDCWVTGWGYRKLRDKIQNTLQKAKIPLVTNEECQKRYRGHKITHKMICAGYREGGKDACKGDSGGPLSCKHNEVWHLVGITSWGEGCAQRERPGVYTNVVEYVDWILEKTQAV

ka1 (two-state model, formation of AB) [1] | ka2 (two-state model, forward conformation change) [1] | kd1 (two-state model, dissociation of AB) [1] | kd2 (two-state model, backward conformation change) [1] | Ka [2] | Ka [3] | Ka [4] | Binder
219000 M⁻¹ s⁻¹ | 0.655 s⁻¹ | 0.0946 s⁻¹ | 0.105 s⁻¹ |  |  |  | B1
34900 M⁻¹ s⁻¹ | 0.00834 s⁻¹ | 0.0532 s⁻¹ | 0.00142 s⁻¹ |  |  |  | B2
 |  |  |  | 3.83e+08 M⁻¹ | 1.68e+08 M⁻¹ | 4.51e+06 M⁻¹ | B3
